In one assay the target is T1, human CTLA-4.ECD-6×His (human, UniProt P16410 36-161).
T1 construct: extracellular domain; also called WBP316.hCTLA-4.ECD-6×His; hCTLA4-His (WT)
T1 sequence: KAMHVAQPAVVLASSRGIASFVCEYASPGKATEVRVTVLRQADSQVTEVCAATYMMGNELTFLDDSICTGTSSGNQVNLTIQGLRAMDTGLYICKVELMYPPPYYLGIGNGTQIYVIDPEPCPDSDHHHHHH
The experiment in a line: capture ELISA: W3162-1.154.8-z35 captured on anti-human Fc, hCTLA4-His supernatant titrated (ng/ml), HRP-anti-His [C].

For assay [1], the target named is T2, hCTLA4_ECD.His point mutant G64 to alanine (human, UniProt P16410 36-161).
T2 construct: extracellular domain; alanine-scan mutein, HEK293F supernatant
T2 sequence (looked up): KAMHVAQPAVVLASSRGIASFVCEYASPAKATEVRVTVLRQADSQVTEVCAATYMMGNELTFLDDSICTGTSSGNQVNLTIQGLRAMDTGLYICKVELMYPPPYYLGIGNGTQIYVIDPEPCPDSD
The experiment in a line: capture ELISA, alanine scan, vs silent alanine substitutions. An outline of the steps: (§1)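 Secreted His-tagged CTLA4 point muteins in quantified supernatant were captured and probed with HRP anti-His antibody and TMB. Absorbance normalised to the mean of control mutants; epitope residues were assigned with a binding fold-change cutoff of <0.55.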
For orientation: An ELISA detects its analyte on a solid surface through an enzyme-linked reagent.

For assay [2], the target named is T3, hCTLA4_ECD.His point mutant K65 to alanine (human, UniProt P16410 36-161).
T3 construct: extracellular domain; alanine-scan mutein, HEK293F supernatant
T3 sequence (looked up): T2 sequence (looked up) with A29G, K30A
The assay is described as above. An outline of the steps: as §1

The target in another assay is T4, Murine CTLA-4.ECD-6×His (mouse, UniProt P09793 36-161).
T4 construct: extracellular domain; Bought; also called mouse CTLA-4.ECD-6×His; mouse CTLA-4 ECD
Nature of the assay: SPR, antibody captured on anti-human Fc, CTLA-4.ECD-6×His as analyte, 1:1 fit. Summed up: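 Goat anti-human IgG Fcγ amine-coupled to a CM5 chip captured antibodies (4 μg/mL in HBS-EP+). CTLA-4-ECD-6×His was injected at a concentration series, with reference- and buffer-channel subtraction. Kinetics were fitted 1:1, and 10 mM glycine pH 1.5 regeneration was used after each dissociation.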

For assay [3], the target named is T5, hCTLA4_ECD.His point mutant Q76 to alanine (human, UniProt P16410 36-161).
T5 construct: extracellular domain; alanine-scan mutein, HEK293F supernatant
T5 sequence (looked up): T2 sequence (looked up) with A29G, Q41A
Nature of the assay: capture ELISA, alanine scan, vs silent alanine substitutions. Summed up:
as §1

For assay [4], the target named is T6, hCTLA4_ECD.His point mutant M90 to alanine (human, UniProt P16410 36-161).
T6 construct: extracellular domain; alanine-scan mutein, HEK293F supernatant
T6 sequence (looked up): T2 sequence (looked up) with A29G, M55A
The description is as above. An outline of the steps:
as §1

Assay [5] addresses T7, hCTLA4_ECD.His point mutant E132 to alanine (human, UniProt P16410 36-161).
T7 construct: extracellular domain; alanine-scan mutein, HEK293F supernatant
T7 sequence (looked up): T2 sequence (looked up) with A29G, E97A
The description is as above. Summed up:
as §1

Assay [6] concerns the target T8, hCTLA4_ECD.His point mutant I128 to alanine (human, UniProt P16410 36-161).
T8 construct: extracellular domain; alanine-scan mutein, HEK293F supernatant
T8 sequence (looked up): T2 sequence (looked up) with A29G, I93A
The assay is described as above. Summed up: as §1

Assay [7] has as its target T9, hCTLA4_ECD.His point mutant L141 to alanine (human, UniProt P16410 36-161).
T9 construct: extracellular domain; alanine-scan mutein, HEK293F supernatant
T9 sequence (looked up): T2 sequence (looked up) with A29G, L106A
The description is as above. Summed up:
as §1

For assay [8], the target named is T10, hCTLA4_ECD.His point mutant V81 to alanine (human, UniProt P16410 36-161).
T10 construct: extracellular domain; alanine-scan mutein, HEK293F supernatant
T10 sequence (looked up): T2 sequence (looked up) with A29G, V46A
Described as above. An outline of the steps:
as §1

Residue numbers refer to the chain shown, from its start.

Usually EC50 (read off the curve) stands for the midpoint of the concentration-response curve. A low value points to a more potent agent. One may read the Kd as the constant that tells how readily two partners part at equilibrium. A higher Kd goes with a looser complex. The koff is a measure of how fast the partners let go of each other. Low readings indicate a long-lived complex, high ones a short-lived complex. The kon is the rate constant with which the complex forms. A high value points to faster complex formation.

B1: W3162_1.154.8-z35-uAb.IgG1K (antibody, V domains shown)
VH: QVQLVQSGAEVKKPGSSVKVSCKASGYTFTNYFMNWVRQAPGQGLEWMGRVDPEQGRADYAEKFKKRVTITADKSTSTAYMELSSLRSEDTAVYYCARRAMDNYGFAYWGQGTLVTVSS
VL: EIVLTQSPDFQSVTPKEKVTITCSANSALSYMYWYQQKPDQSPKLWVHGTSNLASGVPSRFSGSGSGTDFTLTINSLEAEDAATYYCHHWSNTQWTFGGGTKVEIK
notes: Humanized; label says IgG1K
For B1, the “EC50 (read off the curve)” value in the assay with human CTLA-4.ECD-6×His was ~3 ng/mL. In addition, the Fold change in assay [1] came out at 0.543 fold; in assay [2], 0.351 fold.

B2: W3162-1.146.19-z12-uAb.IgG1K (antibody, V domains shown)
VH: QVQLQESGPGLVKPSETLSLTCSVTYHTITSGYDWTWIRKPPGKGMEWIGYISYSGNTNYNPSLKSRVTISRDTSKNQFFLKLSSVTAADTAVYYCASMMVPHYYVMDAWGQGTLVTVSS
VL: DIVMTQTPLSLSVTPGQPASISCRSSQSLLNSDGNTYLYWYLQKPGQSPQLLIYLVSKLGSGVPNRFSGSGSGTDFTLKISRVEAEDVGVYYCVQGTHDPWTFGGGTKVEIK
notes: Humanized; label says IgG1K
In the assay with Murine CTLA-4.ECD-6×His, B2 had a Kd of 1.39 nM. For the same molecule, in the assay with Murine CTLA-4.ECD-6×His, the koff was 0.000239 s⁻¹. The on-rate constant (kon) with Murine CTLA-4.ECD-6×His was determined as 172000 M⁻¹ s⁻¹. In addition, the Fold change in [3] was determined as 0.2 fold; in assay [4] it was 0.492 fold; in assay [5], 0.457 fold; in assay [6], 0.256 fold; in assay [7], 0.486 fold; in assay [8], 0.191 fold.

Values taken from patent US20200277377A1 (WUXI BIOLOGICS SHANGHAI, published 2020).
